Experimental data reported in article PMC10391570 (Cell Reports Methods, 2023).
Values belong to the binder of their own block, whether it stands above or below them.

Legend:
Assay in all cases: ELISA
Der p2 = Der p2 (Dermatophagoides pteronyssinus, UniProt P49278, biotin (Biotin Conjugation Kit, Lightning-Link))
Der f1 = Der f1 (Dermatophagoides farinae, UniProt P16311, biotin (Biotin Conjugation Kit, Lightning-Link))
Ole e1 = Ole e1 (Olea europaea, UniProt P19963, biotin (Biotin Conjugation Kit, Lightning-Link))
Fel d1 = Fel d1 (Felis catus, UniProt P30438;P30440)
Der p1 = Der p1 (Dermatophagoides pteronyssinus, UniProt P08176, biotin (Biotin Conjugation Kit, Lightning-Link))
Sequence of Der p1 (P08176 99-320): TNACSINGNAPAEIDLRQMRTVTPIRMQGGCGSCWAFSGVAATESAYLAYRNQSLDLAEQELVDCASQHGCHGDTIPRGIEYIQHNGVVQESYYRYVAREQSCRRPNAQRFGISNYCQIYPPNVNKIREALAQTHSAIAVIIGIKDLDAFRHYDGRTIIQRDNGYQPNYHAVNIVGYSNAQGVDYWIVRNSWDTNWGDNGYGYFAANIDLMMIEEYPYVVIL

Sequence of Der p2 (P49278 18-146): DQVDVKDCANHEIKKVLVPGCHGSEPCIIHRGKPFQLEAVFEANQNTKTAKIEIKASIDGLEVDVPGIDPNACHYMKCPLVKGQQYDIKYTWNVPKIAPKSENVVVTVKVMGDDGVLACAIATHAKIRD
Sequence of Der f1 (P16311 99-321): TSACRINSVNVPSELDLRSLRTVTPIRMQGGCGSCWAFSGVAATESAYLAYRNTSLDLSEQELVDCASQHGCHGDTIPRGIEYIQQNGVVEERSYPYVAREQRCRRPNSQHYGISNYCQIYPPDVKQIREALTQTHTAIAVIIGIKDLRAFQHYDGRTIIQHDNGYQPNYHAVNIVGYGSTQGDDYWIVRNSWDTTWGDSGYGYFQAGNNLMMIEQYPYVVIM
Sequence of Fel d1 (P30438 23-92, chain 1 of 2): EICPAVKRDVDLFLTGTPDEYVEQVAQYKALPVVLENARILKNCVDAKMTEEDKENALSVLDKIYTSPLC
Sequence of Fel d1 (P30440 18-109, chain 2 of 2): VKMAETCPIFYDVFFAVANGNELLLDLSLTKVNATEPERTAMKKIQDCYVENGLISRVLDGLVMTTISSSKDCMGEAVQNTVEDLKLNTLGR

binding result (Der p2): binds
B1: IgE mAb 8_2 (antibody, V domains shown)
VH: QVLLKESGPGLVAPSQSLSITCTVSGFSLTSYGVSWVRQPPGKGLEWLGVIWGDGNTDYHSALISRLSIRKDNSKSQVFLKLNSLQTDDTATYYCAIGSPFAYWGQGTLVTVSA
VL: DVLMTQTPLSLPVSLGDQVSISCRSSQNIVHSTGNTYLEWYLQKPGQSPKLLIFKVSNRLSGVPDRFSGSGSGTDFTLNISRVEAADLGIYSCFQGSHVPFTFGSGTKLEIK

binding result (Der f1): binds
B2: IgE mAb1_2 (antibody, V domains shown)
VH: QIQLVQSGPELKKPGETVKISCKASGYTFTTYGMSWVKQAPGKGLKWMGWINTYSGVPTYADDFKGRFVFSLETSASTAYLQINNLKNEDTATYFCARAYYYGSSYLIWYFDVWGTGTTVTVSS
VL: NIVLTQSPASLAVSLGQRATISCRASESVDSYGNSFMHWYQQKPGQPPKLLIYLASNLESGVPARFSGSGSRTDFTLTIDPVEADDAATYYCQQNNEDPYTFGGGTKLEIK

binding result (Ole e1): binds
binding result (Fel d1): no binding
binding result (Der p1): binds
binding result (Der p2): binds
binding result (Der f1): binds
B3: IgE monoclonal antibody mAb12_2 (antibody, V domains shown)
VH: QAYLQQSGAELVRPGASVKMSCKASGYTFISYNMHWVKQTRRQGLEWIGAIYPGNGDTSYNQKFKGKATLTVDKSSSTAYMQLSSLTSEDSAVYFCARWDYYGSSYGAYWGQGTLVTVSA
VL: DIQMTQSPASLSVSVGETVTITCRASENIYSNLAWYQQKQGKSPQLLVYAATNLADGVPSRFSGSGSGTQYSLKINSLQSEDFGSYYCQHFWGTPWTFGGGTKLEIK

binding result (Der p2): binds
B4: IgE mAb 21_2 (antibody, V domains shown)
VH: QVQLQQSGPELVKPGASVKISCKAPGNAFSYSWMNWVKQRPGKGLEWVGRIYPGDGDTNYNGKFMGKATLTADKSSNTAYIQLSSLTSEDSAVYFCARSGGGTLYWYFDVWGTGTTVTVSS
VL: DIVMTQSPSSLALSVGQKVTMNCRSSQSLLNSFNQKNYLAWFQQKPGQSPRLLIYFASTRESGVPDRFIGSGSGTDFTLTISSVQAEDLADYFCQQHYNTPLTFGAGTTLELK
